# Measured values reported in the DeepSol protein solubility set.
# Assay: soluble on expression in E. coli; label from the status in PepcDB or PDB records
row,Sequence,soluble on expression in E. coli
1,IKLVIVTGMSGAGKTVAIQSFEDLGYFTIDNMPPTLVPKFLELAAQSGDTSKIAMVVDMRSRLFFREINSILDSLEINDNINFKILFLDATDTELVSRYKETRRSHPLAADGRVLDGISLERELLAPLKSMSQNVVDTSELTPRQLRKVISKEFSNQDSQSSFRIEVMSFGFKYGIPLDADLVFDVRFLPNPYYKPELRDKTGLDTEVYDYVMSFDESDDFYDHLLALIKPILPGYQNEGKSVLTVAIGCTGGQHRSTAFAHRLSEDLKADWTVNESHRDKNKR,not soluble
2,INLEDPRSFLGRELPGFAQFDTEILLAGQGTDYTNMPAESPPPSKVMEEEREANLAEIEKQQTQSDNAQKDPPKQTTGDKKVVFIYHTHNTESYLPLLKGETDPDMARHSKANVTLVGDMFGQALESQGIGATVNKTDIQSKLNKKGLNYARSYDESRPVVKDALASNKNLQYIIDIHRDSRRKKDTTATIKGKSYARVAFVVGKKSKNFEENYKIASELHKLMEKKYPGLSTGVFSKGSPGDNGVYNQDLTDRALLLEFGGVDNNLEELQRAANAAADVFSEMYWDAEKVNAASGE,not soluble
3,IPKNTGGVLNSSVLDDAFSFITSYFDIEYGGLGFGAKFPHPFVDLLFLNYSATRGDDLGKKLGLFTLRKMYYGGIFDQVGGGFHRYTVDREWKLPHFEKLLIDNAELIYDYFTYYIATNDIEILDALRNSVDFVLRELYIDGKGFANSLDADSEGMEGKYYTWTEDELKDSLGNDY,not soluble
4,IQQHSTDIETPTGTMRTYVYRPQASGKFPTIIFYSEIFQQTAPIARTAALMAGHGFVVLVPEVFHELNPIGTVLGYDDAGKDKGNQDKWAKPLEHHDSDTQALVNFIQQQDYCSGKIGTMGVCIGGHLAYRAALNKSVLAAACLYATDIHSGDLPSAEGNDSLTRTKDISAELMMIWGKQDPHIPDEGRMMIHKNLIASGNLFSWHEFNASHAFMRDEGERYDPQLALRVYGMSVELFNRTL,not soluble
5,ITTKRGEKGKVKINVKAGFDWNTPVKVPEYASGYDWARLANEARLGRYDSPIYTPEELEIIRSGLDTDLYPNIDWRDLMLKSGAPRYYANISFSGGSDNVRYYVSGQYTSEQGRYKTFSSENKYNTNTTYERYNYRANVDMNITKTTVLKVSVGGWLVNRTTPTRSTGDIWEDFAKFTPLSTPRKWSTGQWPRVDGQDTPEYHMTQRGYHTKWESKVETSVKLEQDLKFITPGLKFEGVFAFDTYNENIIKREKKEEVWEAQKYRDENGKLILKRVVNRSPMNQNKEVRGDKRYYFQASLDYNRLFAHAHRVGVFGMVYQEEKTDVNFDSSDLIGSIPRRNLAYSGRFTYAYKDKYLAEFNWGCTGSENFEHGKQFGFFPAVSAGYVISEEAFMKKALPWIDQFKIRASYGEVGNDVLDGRRFPYVSLIDTDDGGSYSFGEFGTNRVQAYRIRTLGTPNLTWEIAKKYDVGVDFSFFNGKISGALDWFLDKRDDIFMQRKHMPLTTGLADQTPMANVGKMKSYGWEGNIGFTQSIGQVNLQLRANFTYQTTDIIDKDEAANELWYKMDKGFQLNQSRGLIALGLFKDQDEIDRSPKQTSNRPILPGDIKYKDVNGDGVINDDDIVPLGYREVPGLQYGVGLSANWRNWNLSVLFQGTGK,not soluble
6,IVKASTYMGKRRIGALISMERETGMTDYVETGIPMNANLTSELLINTFIPNTPLHDGAVIINNDTILAAACYLPLSENPFISKELGTRHRAALGVSEVTDCLTIVVSEETGHISLTKNGE,soluble
7,KAKTEDFVKAFQVFDKESTGKVSVGDLRYMLTGLGEKLTDAEVDELLKGVEVDSNGEIDYKKFIEDVLRQ,soluble
8,KANELKPIPFSQRTTPSILDLRKQQATVTQNKIRTDITRFCYGQEAHLDRALAYLGLSPSDEKRPIVTGLRETELNGAYSLILEFDSPLIPIDIWQQKHAKMTKYFAPNVEVKITQPAENRIELELIKTQ,not soluble
9,KASEEGIGGRKTCEYYPCHFEGQNCTFCFCPFYPCENEKTGGKWIQSSRGGRVWSCVDCHLVHKKEIAQKILDCLMHEGDTDELVKVAWKEVMEPIL,not soluble
10,KCPRCGKSVYAAEKVMGGGKPWHKTCFRCAICGKSLESTNVTDKDGELYCKVCYAKNF,soluble
11,KERPEISLPSDFEHTIHVGFDAVTGEFTGMPEQWARLLQTSNITKSEQKKNPQAVLDVLEFYNSKKTSNSQKYMSFTDKS,soluble
12,KGKKLAVIAVAEHEFNQSENNGPGSAPLDPVDNYYQIREAQAKADIVIVTIHGGNEHFHYPRPGLRKLCKHYIDLGVNAVICHHPHVPGAYEIYNGRPIVYSLGNFVFDTLSMVHEWDVGYMAKLKFNEVD,not soluble
13,KGLDKWGIYVPESAAQSVKDAVFEAGAGAIGDYSQCSFEWQGTGQFLPHHNAQPVVGHPGQLERTEELRVEFVAPARLRTTLIDAIRAAHPYEEPAFDVVSMQSTQDLETAEGLGRVGTLPEPMRFGDFVQQVADALPETSWGIRAAGDPEQMVHTVAVSSGSGDSFLDAVAALGVDVYVTSDLRHHPADESRRAQGPLLIDTAHWASEFPWTYQVQELLAQEFAQLDVEVATLRTDPWNISAHPQLR,not soluble
14,KIRDELRAERTFIDQALDSLADIFYVIDSAGTVQRCNEQFATLAGYADEKISDLDALSLFPEEEREGVSEAIEEALTTGQSTIEAEFRTAAGKRVPHEFTADRLTDQDGDLIGLVGTGRDIS,not soluble
15,KKMREEGVHEGCMEQIYRMFSQRLYKEDGSAAEVDDMNRLRLDDWELREDIQQHCRELWPQITTENLKELTDYVEYKEEFLKLFGFGVEGVDYEADVNPAVETDFIQI,not soluble
16,KKVYLIHGWGANRHAFDDLMPRLPATWPVSAVDLPGHGDAPFAQPFDIEAAADGIAAQIDTSADILGWSLGGLVALYLAARHPDKVRSLCLTASFARLTAAEDYPEGLAAPALGKMVGAFRTDYAKHIKQFLQLQLLHTPDAAEIIGRILPDLARCGTPQALQEALDAAERADARHLLDKIDVPVLLVFGGKDAITPLRMGEYLHRHLKGSRLVVMEKAAHAPFLSHAEAFAALCRDFVEG,not soluble
17,KLKPFNDEKTAKIAEEVQQFYESNATISLNEYLENVGELGYELYLTDGAEKSTYYGGAFRKKDLPDKTIKQVLDGETYHGIDSFDTGIFITGFFDNDVRNTIGVPVQADGKQLALFIRQDPEKQFGELRIF,soluble
18,KLNRAIGVIDSGVGGLTVAKELIRQLPKERIIYLGDTARCPYGPRSREEVRQFTWEMTEHLLDLNIKMLVIACNTATAVVLEEMQKQLPIPVVGVIHPGSRTALKVTNTYHVGIIGTIGTVKSGAYEEALKSINNRVMVESLACPPFVELVESGNFESEMAYEVVRETLQPLKNTDIDTLILGCTHYPILGPVIKQVMGDKVQLISSGDETAREVSTILYHSKMLNEGEEQSDHLFLTTGKIGLFKEIASKWFGQPIENVKHIHLEK,soluble
19,KLSNGMNGSEAAVHEVPEYTGPLGTSGEEPAPTVEKPEYTGPLGTSGEEPAPTVEKPEYTGPLGTAGEEAAPTVEKPEFTGGVNGTEPAVHEIAEYKGSDSLVTLTTKEDYTYKAPLAQQALPETGNKESDLLASLGLTAFFLGLFTLGKKREQ,not soluble
20,KLVFLHGLGQDKTAWNDVIAALPHYDCLALDLFDEGKMPENFTTLVEQVATELKGIEEDFVLIGLSLGAMLALALSDYTFPHIKGFIVSGAQHDLKRSFLYKLQLLGLQLLPKSFFKKQGVKKDSFLAFSKSLSTLDLRETIRQIDIPALILCGQKDKPNLLPARKIAELIPNARLSVIKKGGHLLNTKMPIVFAKEITDFLK,not soluble
21,KMERKNVWHHRKKEEIEAFSKEYMEFMSKAKTERMTVKEIKRILDESGFVPLEDFAGDPMNMTVYAVNRGKAIAAFRVVDDLKRGLNLVVAHIDSPRLDFKPNPLIEDEQIALFKTHYYGGIKKYHWLSIPLEIHGVLFKNDGTEIEIHIGDKPEDPVFTIPDLLPHLDKEDAKISEKFKGENLMLIAGTIPLSGEEKEAVKTNVLKILNEMYGITEEDFVSGEIEVVPAFSPREVGMDRSLIGAYGQDDRICAYTALRALLSANPEKSIGVIFFDKEEIGSDGNTGAKARFYLKALRQILKMQGAKDSEFVLDEVLENTSVISGDVCAAVNPPYKDVHDLHNAPKLGYGVALVKYTGARGKYSTNDAHAEFVARVRKVLNEQGVIWQVATLGKVDQGGGGTIAKFFAERGSDVIDMGPALLGMHSPFEISSKADLFETYVAYRSLMEKL,soluble
